# Test results published in the DeepSol protein solubility set.
# Experiment: soluble on expression in E. coli; label from the status in PepcDB or PDB records
row,Sequence,soluble on expression in E. coli
1,MSLSWRLQTGSEKAELQELNARLYDYVCRVRELERENLLLEEELRSRLSREDRWAEDQALYAEEARSLRQQLDELNWSTALAEGERDALRRELLELQREGVEAGTARSRLDAELGAQRRELEEALGARAALEALLGRLETERRDLDAAHERQVRDLRARAASLTMHFRARATSPAAPPPRLRDVHDSYALLVAESWRESVQLYEDEVRELEQALRRGQESRLQAEDEARLCAQEADALRNQALELEQLRARLEDELLRMREEYGMQAEERQRVIDSLEDEKEALTLAMADRLRDYQELLQVKTGLSLEVATYRALLEGESNPEILIWTENIENVPQEPRNTSYRYTNSVLQRKNEKNLFPRREGHHHHHH,not soluble
2,MSLSYRAHGLPVLENLLEQDFSASGPNQKWAGDITYLRTDEGWLYLAVVIDLWSRAVIGWSMSPRMTAQLACDALQMALWRRRRPESVIVHTDRGGQYCSGDYQALLKRHNLRGSMSAKGYCYDNACVESFFHSLKVECIHGERFSSREIMRATVFNYIECDYNRWRRHSACGGLSPEQFENHNLAEGHHHHHH,not soluble
3,MSLSYSNILVAVAVTPESQQLLAKAVSIARPVKGHISLITLASDPEMYNQLAAPMLEDLRNVMQEETQSFLDKLIQDAGYPVDKTFIAYGELSEHILEVCRKHHFDLVICGNHNHSFFSRASCSAKRVITSSEVDVLLVPLTGDEGHHHHHH,soluble
4,MSLTAPRLRILSVEVRERMMPFVRPFRFGPSVVEAAPQAFVRIELEVEGAGRAVGQAAEMMMPRWFDKAPHKSPEQTVDDLRRVLLHAAALYADAPWSTAYGLSADAAAMQLGWAEGRGIPALAAHFGPALLDKAVVDALLRALSLTFPEGLSRNVMGLDARNARDLSPEQIPALLASLTPVPAVAVRHTIGLLDPLEGPHGLSAEIAAARLRFFKIKIGGDLAADLDRLAAITALLTHLAPDFRATLDANEQYDPERLCQLAAGLDTPALRPLKARLLYIEQPFDRTETFTRPLPPALDGIPVIIDEADGGLDAFPRAIALGYRGVSSKACKGLYKSILNAVRVQAGEGTFLTAEDLTCQPGLGLQQDLALVATLGLTHGERNGHHYVAGFGPAPEEEAGAFAAAHPDLYRLTDAGAALDVSRGVLATASLLSAPGFAGRAEPDWASLAPVTEGHHHHHH,not soluble
5,MSLTAPRTPGTPRTPRTEHLVLPGVLTAAEAAATVRGILAVQREDGAIPWFRGHHLDPWDHVEAAMALDTADEHEAAERAYAWLARHQNQDGSWYAAYADGDFADVTDRGRETNFVAYVAVGVWHHYLATGDDLFLERMWPVVHAAVEFVLRLQQPGGQIGWRRGDDGTDTTDALLTGSSSVHHALRCALAIAEQREEPQPDWELAAGALRHAIRRHPERFLDKGRYSMDWYYPVLGGALTGTEARSRIQESWDRFVVPGLGVRCVVPNPWVTGGESAELALALWAVGESDHALEILQSIQHLRDPDSGLYWTGYVFEDETVWPRELTAWTAGSLLLAVAALGGHEATCQVFAGERLPRGLDPDCCVEGHHHHHH,soluble
6,MSLTCGSGFGGRAFSCISACGPRPGRCCITAAPYRGISCYRGLTGGFGSHSVCGGFRAGSCGRSFGYRSGGVCGPSPPCITTVSVNESLLTPLNLEIDPNAQCVKQEEKEQIKSLNSRFAAFIDKVRFLEQQNKLLETKLQFYQNRECCQSNMEPLFEGYIETLRREAECVEADSGRLASELNHVQEVLEGYKKKYEEEVSLRATAENEFVALKKDVDCAYLRKSDLEANVEALIQEIDFLRRLYEEEIRILQSHISDTSVVVKLDNSRDLNMDCIIAEIKAQYDDIVTRSRAEAESWYRSKCEEMKATVIRHGETLRRTKEEINELNRMIQRLTAEVENAKCQNSKLEAAVAQSEQQGEAALSDARCKLAELEGALQKAKQDMACLIREYQEVMNSKLGLDIEIATYRRLLEGEEQRLCEGIGAVNVCVSSSRGGVVCGDLCVSGSRPVTGSVCSAPCNGNVAVSTGLCAPCGQLNTTCGGGSCGVGSCGISSLGVGSCGSSCRKCEGHHHHHH,not soluble
